Source: patent US20100015643A1

Assays:
[1] = target: TLR2 on human monocytes (human) (UniProt O60603); assay: flow cytometry on monocytes of a patient's blood sample, 3 µg/mL PE-labeled control antibody
[2] = target: TLR2 on human monocytes (human) (UniProt O60603); assay: flow cytometry on monocytes, Sample 2, antibody at 1 µg/mL
[3] = target: TLR2 on human monocytes (human) (UniProt O60603); assay: flow cytometry on monocytes of a patient's blood sample, 3 µg/mL PE-labeled antibody
[4] = target: TLR2 on human monocytes (human) (UniProt O60603); assay: flow cytometry on monocytes, Sample 2, antibody at 3 µg/mL
[5] = target: TLR2 on human monocytes (human) (UniProt O60603); assay: flow cytometry on monocytes, Sample 3, instrument setting FL534
[6] = target: TLR2 on human monocytes (human) (UniProt O60603); assay: flow cytometry on monocytes, Sample 1, instrument setting FL634
[7] = target: TLR2 on human monocytes (human) (UniProt O60603); assay: flow cytometry on monocytes, Sample 3, antibody at 3 µg/mL
[8] = target: TLR2 on human monocytes (human) (UniProt O60603); assay: flow cytometry on monocytes, Sample 3, instrument setting FL634
[9] = target: TLR2 on human monocytes (human) (UniProt O60603); assay: flow cytometry on monocytes, Sample 1, instrument setting FL534
[10] = target: TLR2 on human monocytes (human) (UniProt O60603); assay: flow cytometry on monocytes, Sample 1, antibody at 3 µg/mL
[11] = target: TLR2 on human monocytes (human) (UniProt O60603); assay: flow cytometry on monocytes, Sample 3, antibody at 1 µg/mL
[12] = target: TLR2 on human monocytes (human) (UniProt O60603); assay: flow cytometry on monocytes, MFI of anti-TLR2 antibody minus MFI of control antibody
[13] = target: TLR2 on human monocytes (human) (UniProt O60603); assay: flow cytometry on monocytes, Sample 2, instrument setting FL534
[14] = target: TLR2 on human monocytes (human) (UniProt O60603); assay: flow cytometry on monocytes, Sample 2, instrument setting FL634
[15] = target: TLR2 on human monocytes (human) (UniProt O60603); assay: flow cytometry on monocytes, Sample 1, antibody at 1 µg/mL

Chain of UniProt O60603 (O60603 21-784): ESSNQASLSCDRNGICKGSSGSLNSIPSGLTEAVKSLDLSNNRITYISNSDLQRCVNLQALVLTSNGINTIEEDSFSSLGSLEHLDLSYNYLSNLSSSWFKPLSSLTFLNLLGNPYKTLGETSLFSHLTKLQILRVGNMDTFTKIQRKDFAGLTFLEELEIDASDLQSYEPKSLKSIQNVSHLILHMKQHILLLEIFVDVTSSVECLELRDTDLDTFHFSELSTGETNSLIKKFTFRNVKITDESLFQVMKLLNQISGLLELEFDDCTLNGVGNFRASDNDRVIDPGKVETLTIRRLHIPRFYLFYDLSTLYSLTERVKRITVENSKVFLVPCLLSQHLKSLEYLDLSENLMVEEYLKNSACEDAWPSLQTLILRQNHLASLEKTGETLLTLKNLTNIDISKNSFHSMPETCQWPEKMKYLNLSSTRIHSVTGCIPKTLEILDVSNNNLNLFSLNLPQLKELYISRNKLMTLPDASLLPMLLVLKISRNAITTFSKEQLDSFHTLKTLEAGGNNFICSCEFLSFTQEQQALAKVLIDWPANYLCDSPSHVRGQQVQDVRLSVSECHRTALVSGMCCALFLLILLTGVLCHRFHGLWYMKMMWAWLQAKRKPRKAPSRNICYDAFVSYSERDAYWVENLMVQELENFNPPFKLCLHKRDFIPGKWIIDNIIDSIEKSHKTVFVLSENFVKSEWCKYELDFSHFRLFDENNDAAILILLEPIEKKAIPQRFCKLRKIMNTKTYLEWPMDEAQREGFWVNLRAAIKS

MFI [1] [MFI]	Delta MFI [2] [MFI]	MFI [3] [MFI]	Delta MFI [4] [MFI]	Delta MFI [5] [MFI]	Delta MFI [6] [MFI]	Delta MFI [7] [MFI]	Delta MFI [8] [MFI]	Delta MFI [9] [MFI]	Delta MFI [10] [MFI]	Delta MFI [11] [MFI]	Delta MFI [12] [MFI]	Delta MFI [13] [MFI]	Delta MFI [14] [MFI]	Delta MFI [15] [MFI]	Substance
11.7	–	–	–	–	–	–	–	–	–	–	–	–	–	–	PE-labeled control (mouse IgG2a) antibody
–	54.1	104	88	68.7	286	68.7	273	77.5	77.5	40.4	92.6	88	340	53.7	PE-bound anti-TLR2 monoclonal antibody (clone name: T2.1, product of eBioscience)
